Reference: patent US8067005

Biological target: T1, human TNF (human, UniProt P01375 77-233)
T1 construct: Passed over captured antibody in solution; also called human TNFα
Assay: SPR (BIAcore); antibody captured by immobilized anti-Fab′ antibody, human TNF passed over

T1 sequence (P01375 77-233 limits assumed): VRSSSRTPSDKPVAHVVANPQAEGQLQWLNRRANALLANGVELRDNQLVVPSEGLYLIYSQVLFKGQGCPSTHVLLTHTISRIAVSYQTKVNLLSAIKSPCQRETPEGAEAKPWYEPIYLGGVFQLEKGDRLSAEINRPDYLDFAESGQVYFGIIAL

Kd: 0.179 nM
B1: hTNF40 IgG (antibody, V domains shown)
VH: QIQLVQSGPELKKPGETVKISCKASGYVFTDYGMNWVKQAPGKAFKWMGWINTYIGEPIYVDDFKGRFAFSLETSASTAFLQINNLKNEDTATYFCARGYRSYAMDYWGQGTSVTVSS
VL: DIVMTQSQKFMSTSVGDRVSVTCKATQNVGTNVAWYQQKPGQSPKALIYSASFLYSGVPYRFTGSGSGTDFTLTISTVQSEDLAEYFCQQYNIYPLTFGAGTKLELKR
